Among the data in patent US20210108251, “DETECTION OF ENDONUCLEASE ACTIVITY” (AARHUS UNIVERSITET, published 2021) are activity values, retold here.

In series [1] the target is T1, EcoRI (UniProt P00642 P00642:2-277). Briefly: cleavage_in_vitro; assayed as pair with SEQ 1; cleavage-ligation-RCA readout; Mg acetate pH 7.9, 37 C; std error 6.6. Conditions: tags: Thermo Scientific; chain copies: 2; hairpin. The method, then: (§1) For detection of EcoRI activity, 50 pmol of each of the two substrates REN2-ID33-EcoRI (SEQ ID NO: 1) and REN2-PB-EcoRI (SEQ ID NO: 2) were incubated for 1 h at 37° C. either with or without 10 units of EcoRI. The reaction was done in a reaction buffer containing 500 mM Potassium Acetate; 200 mM Tris-acetate; 100 mM Magnesium Acetate; and 1 mg/ml BSA (pH 7.9). The reaction volume was 50 μL. After incubation, the restriction endonuclease was inactivated by heating to 94° C. for 10 minutes. ATP was added to a final concentration of 10 mM and 1 unit of T4 ligase (Invitrogen) was added. The reaction mixture was then incubated over night at room temperature.
(§2) The two substrate molecules carrying the EcoRI cleavage sites (see materials and methods) were incubated with or without purified enzyme and subjected to the protocol as described in materials and methods (see also FIG. 1A). After counting the signals, the fold increase over background (no enzyme) was calculated.

Series [2] addresses T1, EcoRI. Briefly: cleavage_in_vitro; assayed as pair with SEQ 2; cleavage-ligation-RCA readout; Mg acetate pH 7.9, 37 C; std error 6.6. The conditions noted are these: tags: Thermo Scientific; chain copies: 2; hairpin. The method, then:
as §1, §2

T1 sequence (P00642 2-277, one chain of several): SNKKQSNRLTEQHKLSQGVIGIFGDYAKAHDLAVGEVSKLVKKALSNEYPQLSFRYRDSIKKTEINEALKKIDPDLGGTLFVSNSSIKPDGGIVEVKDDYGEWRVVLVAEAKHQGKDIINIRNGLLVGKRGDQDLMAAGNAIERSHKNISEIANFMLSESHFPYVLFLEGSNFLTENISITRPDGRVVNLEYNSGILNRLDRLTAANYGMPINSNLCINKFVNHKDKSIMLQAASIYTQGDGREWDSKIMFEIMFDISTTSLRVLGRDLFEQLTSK

B1: REN2-PB-EcoRI (structured_DNA)
DNA: ATTTCCAGAATTCTGGGTATAGGAACTTCGAACGACTCGACTGTGAAGATCGCTTATCGAGTCGTTCGAAGTTCCTATACCCAGAATTCTGGAAAT
modifications: 5'-amine and 3'-amine
B1 showed an activity in the series with EcoRI [1] of 110 fold over no enzyme.

B2: REN2-ID33-EcoRI (structured_DNA)
DNA: ATTTGACGAATTCGTCGTATAGGAACTTCGAACGACTCGCCTCAATGCACATGTTTGGCTCCCGAGTCGTTCGAAGTTCCTATACGACGAATTCGTCAAAT
modifications: 5'-amine and 3'-amine
In the series with EcoRI [2], B2 had an activity of 110 fold over no enzyme.
